Data reported in patent US6979530.

Target: T1, Peptide conjugate 9 (DYE^2-Gly-Asp-Glu-Val-Asp-Gly-Ile-Lys-DYE^1)
T1 chain: GDEVDGIK

B1: purified caspase-3 (BD PharMingen) (protein)
chain: SGISLDNSYKMDYPEMGLCIIINNKNFHKSTGMTSRSGTDVDAANLRETFRNLKYEVRNKNDLTREEIVELMRDVSKEDHSKRSSFVCVLLSHGEEGIIFGTNGPVDLKKITNFFRGDRCRSLTGKPKLFIIQACRGTELDCGIETDSGVDDDMACHKIPVEADFLYAYSTAPGYYSWRNSKDGSWFIQSLCAMLKQYADKLEFMHILTRVNRKVATEFESFSFDATFHAKKQIPCIVSMLTKELYFYH
fluorescence excitation and emission spectra before and after adding purified caspase-3 (in vitro cleavage): When purified caspase-3 is added to 9, significant excitation fluorescence (FIG. 6) and significant emission fluorescence is detected (FIG. 7) from the donor dibenzorhodamine dye | time course of donor dye fluorescence emission after mixing with caspase-3 (in vitro cleavage): Emission from the donor dye increased rapidly during the first 5 to 10 minutes and stabilized in about an hour, indicating rapid cleavage.
